Measured values taken from article PMC7613103 (Science signaling, 2020).
Each block holds one molecule with its values, some of them ahead of it.

How the values were obtained:
[1] = molecular target: UBE2S^UBC (UBC domain of UBE2S, residues 1-156) (human) (UniProt Q16763); assay: cross-linking + SEC-MALS
[2] = molecular target: Cys118 (UniProt position 118, LLTIKCLLIHP); assay: chemical modification; conditions: 10 °C; 100 mM NaCl; Free reduced enzyme, 14.4 μM, no ubiquitin or other ligand
[3] = molecular target: Cys95 (UniProt position 95, ANGEICVNVLK); assay: chemical modification; conditions: 10 °C; 100 mM NaCl; Free reduced enzyme, 14.4 μM, no ubiquitin or other ligand
[4] = molecular target: T1, UBE2S (full-length, untagged, purified) (human), Q16763; assay: cross-linking + SEC-MALS; conditions: remark: other sources report otherwise
T1 chain: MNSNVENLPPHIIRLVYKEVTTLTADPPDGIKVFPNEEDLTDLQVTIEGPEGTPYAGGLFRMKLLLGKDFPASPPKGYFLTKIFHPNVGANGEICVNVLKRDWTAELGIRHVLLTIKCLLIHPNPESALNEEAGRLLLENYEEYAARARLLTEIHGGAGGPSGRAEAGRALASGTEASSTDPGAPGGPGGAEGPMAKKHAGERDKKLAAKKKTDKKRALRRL

[5] = molecular target: the molecule itself; assay: cross-linking

stoichiometry N [1]: 2
Molecule: UBE2S^UBC (UBC domain of UBE2S, residues 1-156) (from UniProt Q16763 1-156) (domain or fragment)

Molecule: Ubiquitin-conjugating enzyme E2 S (UBE2S) C95S variant (Homo sapiens; C95S)
pKa [2]: 9.4 ± 0.1

Molecule: Ubiquitin-conjugating enzyme E2 S (UBE2S) C118S variant (Homo sapiens; C118S)
pKa [3]: 6.4 ± 0.2

stoichiometry N [4]: 2
B1: UBE2S (full-length, untagged, purified), Q16763 1-222 (enzyme)
chain: MNSNVENLPPHIIRLVYKEVTTLTADPPDGIKVFPNEEDLTDLQVTIEGPEGTPYAGGLFRMKLLLGKDFPASPPKGYFLTKIFHPNVGANGEICVNVLKRDWTAELGIRHVLLTIKCLLIHPNPESALNEEAGRLLLENYEEYAARARLLTEIHGGAGGPSGRAEAGRALASGTEASSTDPGAPGGPGGAEGPMAKKHAGERDKKLAAKKKTDKKRALRRL

B2: UBE2S C95S (full-length) (enzyme)
chain: MNSNVENLPPHIIRLVYKEVTTLTADPPDGIKVFPNEEDLTDLQVTIEGPEGTPYAGGLFRMKLLLGKDFPASPPKGYFLTKIFHPNVGANGEISVNVLKRDWTAELGIRHVLLTIKCLLIHPNPESALNEEAGRLLLENYEEYAARARLLTEIHGGAGGPSGRAEAGRALASGTEASSTDPGAPGGPGGAEGPMAKKHAGERDKKLAAKKKTDKKRALRRL
binding result [5]: binds
